Experimental data as given in paper PMC11290490, “Structural insights into activation mechanisms on NADase of the bacterial DSR2 anti-phage defense system” (Science Advances, 2024).

B1: defense-associated sirtuin2 (DSR2) from Bacillus subtilis 29R (enzyme, UniProt P0DXN8 1-1005, looked up)
chain: MVKVDLESKRYGEKLKEVFLMLDNNVVECIKEITESSRNGKLVFFVGAGVSTLSDYPQWWRLVDKYHEELYGSPKKGNYSSDEYLRIPQIFYNVKGEMAFDGILKDFFQVDKPTNPIHDKILAMNPAHVITTNYDNLIDTACWKRGKYFSVISAEEDVANATSSRYLLKVHGDFRKGFKGENVVLKEDDYLNYDQNYPLISNLMKTIIATHTIVFIGYGLGDYNINMLLNWVRKLQKDSFHKPFFIRTDPSPIENETLIYYENKGLRIIDAASLIDSNEYDYLERYSAVMDLLIESQENKFITKDDEVIDYIYGKISPLFALQYIRKIDLKHVFEYDYHFEVNGTVVRHKNKGFGYMERFFELKESCDERSKLSKKQYERFNALFNFFEKNGVICMAKDAGTLNTSIEINSLAYHGKYDVMKKFIEEQSVSIEDDYKKAFFLACLGRWEESYDLYSNIILNSIDESNGCVYYLSQINRYRIYQSITQAVTQFNGLGLLTFGRHYKPFTDEFLARIEREMTNFNIDDLFNGMPFEFQKKYKILEFLSDNQFLYDDTVKLFELTNKVRSEMSEGSYSFGMSSDIVVLLRLYDNLRFLYENCLWSVSFHEFHQYIRNSMSLLIEKAEYERTRDIDELGFSFFGKKSGFFMEYYDFVNISRHFKIDDIKNLERSCSIDKIRFGEQEKIEEYLVGIAEEITKQFSANGMNVVFYTQFISEAKAALYFAKYVKLSEEGLGKIVKALLFYFPERDLDIGKRYVWLERLTKCNELPKSIISIIDDFLVLQAEKHIDQNYSEVSSNGLYSRDYGALIKHFEKNFISKRLSEITLCLTQDKQKQIDFLFKLLPLLSTNAKSHLLSFKSVENINDLMNGIRIGLIDEFTPEHEELIIEYLETRKVNYIVEKEKGIQTFSSNDYMSTFGIWYFLEEINNSKMEEFIGMDDQYDFFVDPENFDYKKFIPSWLKNYNDKLLGKIAGNKHMKHHVIEVLKERVKNSNDKRYLEILMNYFI
notes: DSR2 from Bacillus subtilis 29R, WP_029317421; SIR2 domain residues 1 to 297, MID 297 to 627, CTD 627 to 1005; Cloned into pET28a; tag not cleaved (purified directly by SEC); For MST the protein was fluorescently labelled with the Monolith Protein Labeling Kit RED-NHS second generation; also called DSR2^WT; His-tag DSR2; source: E. coli BL21(DE3), purified (Ni-NTA, size-exclusion gel filtration)

Experiments:
[1] = molecular target: the molecule itself; experiment: cryo-EM structure; purified DSR2 or its complex with DSAD1 or TTP (formed at a molar ratio of 1:3, on ice, purified by gel filtration), 1.0 mg/ml on Quantifoil grids
[2] = molecular target: B1; experiment: MST; DSR2 fluorescently labelled (RED-NHS), 100 nM, mixed with twofold dilutions of TTP or DSAD1; 10 mM phosphate-buffered saline, 0.05% Tween 20; 20 min at room temperature; Monolith NT.115; triplicate; conditions: both partners purified
[3] = molecular target: B1; experiment: cryo-EM structure; purified DSR2 or its complex with DSAD1 or TTP (formed at a molar ratio of 1:3, on ice, purified by gel filtration), 1.0 mg/ml on Quantifoil grids; conditions: both partners purified

| Binder | stoichiometry N [1] | Kd [2] | stoichiometry N [3] |
| --- | --- | --- | --- |
| B1 | 4 | – | – |
| DSR anti-defense 1 (DSAD1) from phage phi3T/SPbeta (natural protein, DSAD1 from phage phi3T/SPbeta, WP_004399562; source: E. coli BL21(DE3), purified (Ni-NTA, TEV cleavage, SEC); not shown: His-tag, N-terminal, cleaved; Trx-tag, N-terminal, cleaved) KDTGATHDLVYHSKINTFVWDVEFDIVLSDSKELNKCYFVKCFNPYRINGKCDFAVSSIDIFSEGKRLLIENEFNFKITKAVHVATSKDVTEIVLHLSERISSPFPIVKEVVYLD | – | 40.4 nM | 0.5 DSAD1:DSR2 |
| monomeric tail tube protein (TTP) of phage SPR (natural protein, tail tube protein (TTP) from phage SPR, WP_010328117; residues 1 to 73 and 189 to 263 seen in the complex structure; also called Mono TTP; monomeric TTP; source: E. coli BL21(DE3), purified (Ni-NTA, TEV cleavage, SEC; monomeric fraction); not shown: His-tag, N-terminal, cleaved; Trx-tag, N-terminal, cleaved) MKTVIQDTADVYFKRKSDGKLVFTAEAQTASFSQAISEEKLRGGIGNKPLYILKSEKEINLTVKNAFFDLEWLAMTQGETIQEETKVKVFDREHGLIVDDTNKVTLKGKPVSDVTFYNKKGLTYKIAVSTDGTYTIPTAFAAAKDKLTAVYQIEKVGRRLAIKASKFSERYEVEYRTIAYNPDTEEVYSDIYIQFPNVSPSGEFEMSLENGNALAPEIKFEALADTDTDEMAVVIEASRDENTAAPVEDTTGSTQSSDLGGTTE | – | 655 nM | – |
